These results are taken from patent US12239647B2, “ALS treatment using induced regulatory T (iTREG) cells” (RAPA THERAPEUTICS, LLC, priority 2018, dated 2025).

Experiment [1] has as its system human CD4+ and CD8+ T cells. The experiment in a line: Cytokine secretion (Luminex) after 10-day re-differentiation in polarization conditions. The format is cell-based. Conditions: lack of IL-4 inclusion in the T cell re-differentiation process. The text has this: FIGS. 16A-16C illustrate that the culture of de-differentiated T cells in hybrid Th2/TReg polarization condition results in the generation of T cells with a primitive Th2 cell cytokine phenotype: as indicated by high levels of IL-2 and IL-4 secretion and a low level of IL-5 secretion. Human CD4+ and CD8^+ T cells were subjected to a 3-day de-differentiation procedure and subsequent culture in media containing variable polarization culture conditions and variable presence of pemetrexed, as described in FIG. 13. Out of the total of n=24 culture conditions, only the cultures with favorable cell yields were further evaluated; all cultures shown that contained pemetrexed (“+”) were at the concentration of 10 nM. The TREG conditions above all contained IL-2, TGF-β, and IL-4 (“TReg”) unless indicated (“TReg, No IL4”). […] All results shown are expressed as cytokine level in pg per ml per 1×10^6 cells/ml/24 hr.
FIGS. 17A-17C illustrate that the culture of de-differentiated T cells in hybrid Th2/TReg polarization condition results in the generation of T cells with a primitive Th2 cell cytokine phenotype: as indicated by low levels of IL-10, IL-13, and IL-17 secretion. […] Out of the total of n=24 culture conditions, only the cultures with favorable cell yields were further evaluated; all cultures shown that contained pemetrexed (“+”) were at the concentration of 10 nM. […] All results shown are expressed as cytokine level in pg per ml per 1×10^6 cells/ml/24 hr.
FIGS. 18A-18C illustrates that the culture of de-differentiated T cells in hybrid Th2/TREG polarization condition results in the generation of T cells with a primitive Th2 cell cytokine phenotype: as indicated by low levels of IFN-gamma, TNF-alpha, and GM-CSF secretion. […] Out of the total of n=24 culture conditions, only the cultures with favorable cell yields were further evaluated; all cultures shown that contained pemetrexed (“+”) were at the concentration of 10 nM. […] All results shown are expressed as cytokine level in pg per ml per 1×10^6 cells/ml/24 hr.

Another experiment relates to CD4+ and CD8+ T cells. The experiment in a line: Flow cytometry of GATA3 and FOXP3 in Th2/TREG cell product after 6-day culture. The format is cell-based, human. Conditions: control manufacturing culture that did not include IL-4. The text has this:
After the 6-day culture, the T cells were harvested, stained for surface markers (CD4 and CD8) and intracellular molecule expression (GATA3 and FOXP3) and evaluated by flow cytometry. Results in FIGS. 26A-B show the FOXP3 and GATA3 expression for CD4+ and CD8+ T cells at the start of culture and after culture (Th2/TREG) as measured by flow cytometry. The percentages provided indicate the amount of cells considered positive for CD4+ or CD8+ and the intracellular marker (shown in boxes).

B1: IL-4: Th2 polarizing cytokine added to re-differentiation culture (protein, UniProt P05112 25-153, looked up)
Interleukin-4: HKCDITLQEIIKTLNSLTEQKTLCTELTVTDIFAASKNTTEKETFCRAATVLRQFYSHHEKDTRCLGATAQQFHRHKQLIRFLKRLDRNLWGLAGLNSCPVKEANQSTLENFLERLKTIMREKYSKCSS
Turning to B1, in experiment [1], the GM-CSF secretion result is on record as “higher levels”, the IFN-γ secretion entry is listed as “higher levels” and the TNF-α secretion result was “higher levels”. Moreover, the “frequency of GATA3-positive T cells” value in the experiment on CD4+ and CD8+ T cells is “greatly reduced frequency of GATA3-positive T cells”.
